Six molecules from PMC4005645, “Molecular basis for the wide range of affinity found in Csr/Rsm protein–RNA recognition” can be followed below.

Data set [1] addresses T1, RsmE (Pseudomonas fluorescens CHA0, UniProt P0DPC3 1-64).
T1 sequence: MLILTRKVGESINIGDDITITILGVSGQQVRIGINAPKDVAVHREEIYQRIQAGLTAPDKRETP
As to the kind of experiment: NMR structure; slow exchange; ITC: 300 mM NaCl, 50 mM potassium phosphate pH 8.0, 298 K; NMR: 30 mM NaCl, 50 mM potassium phosphate pH 7.2, 313 K. As to conditions: protein: recombinant; tags: C-terminal His tag; chain copies: 2; hairpin.

Data set [2] addresses T1, RsmE. As to the kind of experiment: ITC; intermediate affinity; value in figure; ITC: 300 mM NaCl, 50 mM potassium phosphate pH 8.0, 298 K; NMR: 30 mM NaCl, 50 mM potassium phosphate pH 7.2, 313 K. As to conditions: protein: recombinant; tags: C-terminal His tag; chain copies: 2.
Data set [3] has as its target T1, RsmE. As to the kind of experiment: ITC; two-site fit, high affinity, similar to SL2; values in figure; ITC: 300 mM NaCl, 50 mM potassium phosphate pH 8.0, 298 K; NMR: 30 mM NaCl, 50 mM potassium phosphate pH 7.2, 313 K. Particulars: protein: recombinant; tags: C-terminal His tag; chain copies: 2; hairpin. Background: Isothermal titration calorimetry measures the heat released or taken up as one component is titrated into another.

The target of data set [4] is T1, RsmE. As to the kind of experiment: ITC; first RNA on dimer, two-site fit; ITC: 300 mM NaCl, 50 mM potassium phosphate pH 8.0, 298 K; NMR: 30 mM NaCl, 50 mM potassium phosphate pH 7.2, 313 K. Particulars: protein: recombinant; tags: C-terminal His tag; chain copies: 2; hairpin.
Data set [5] has as its target T1, RsmE. As to the kind of experiment: ITC; second RNA on dimer, two-site fit; ITC: 300 mM NaCl, 50 mM potassium phosphate pH 8.0, 298 K; NMR: 30 mM NaCl, 50 mM potassium phosphate pH 7.2, 313 K. As to conditions: protein: recombinant; tags: C-terminal His tag; chain copies: 2; hairpin.

Turning to GGGAUCGCAGGAAGCGAUCCC (structured_RNA) [RsmZ SL3], the binding result in data set [1] is “binds”.

On to GGGUGUCGACGGAUAGACACCC (structured_RNA) [RsmZ SL1], for which the binding result in data set [1] was “binds”.

As to GAGCAUGGACGGCGAGACGCCGGGUA (structured_RNA) [hcnA-GGA#3], the binding result in data set [2] was “binds”.

Consider GGGUCAUCAGGACGAUGACCC (structured_RNA) [RsmZ SL4], for which, in data set [1], the binding result is reported as “binds”.

As to GGGCUUCACGGAUGAAGCCC (structured_RNA) [20nt-RBS (hcnA GGA#5)], in data set [3], the binding result is on record as “binds”.

One may read the Kd as the constant that tells how readily two partners part at equilibrium. In the case of GGGCCAUCAAGGACGAUGGUCC (structured_RNA) [RsmZ SL2], the Kd was 16 ± 3 nM in data set [4] and 185 ± 3 nM in data set [5].
